Test results from publication PMC7171142 (Scientific Reports, 2020).

Assays:
[1] = biological target: Recombinant Ecto-PfRipr (D21-N1086), C-terminal His-tag (P. falciparum 3D7) (UniProt O97302); assay: SPR; single-cycle kinetics, Biacore X100; recombinant PfRipr immobilised on a CM5 chip as ligand; analytes at 3.13, 6.25, 12.5, 25 and 50 nM, contact time 120 s, dissociation 180 s, last dissociation 3000 s
[2] = biological target: T1, Recombinant Ecto-PfRipr (D21-N1086), C-terminal His-tag (P. falciparum 3D7, UniProt O97302 21-1086); assay: as above; conditions: both partners purified
T1 sequence (O97302 21-1086): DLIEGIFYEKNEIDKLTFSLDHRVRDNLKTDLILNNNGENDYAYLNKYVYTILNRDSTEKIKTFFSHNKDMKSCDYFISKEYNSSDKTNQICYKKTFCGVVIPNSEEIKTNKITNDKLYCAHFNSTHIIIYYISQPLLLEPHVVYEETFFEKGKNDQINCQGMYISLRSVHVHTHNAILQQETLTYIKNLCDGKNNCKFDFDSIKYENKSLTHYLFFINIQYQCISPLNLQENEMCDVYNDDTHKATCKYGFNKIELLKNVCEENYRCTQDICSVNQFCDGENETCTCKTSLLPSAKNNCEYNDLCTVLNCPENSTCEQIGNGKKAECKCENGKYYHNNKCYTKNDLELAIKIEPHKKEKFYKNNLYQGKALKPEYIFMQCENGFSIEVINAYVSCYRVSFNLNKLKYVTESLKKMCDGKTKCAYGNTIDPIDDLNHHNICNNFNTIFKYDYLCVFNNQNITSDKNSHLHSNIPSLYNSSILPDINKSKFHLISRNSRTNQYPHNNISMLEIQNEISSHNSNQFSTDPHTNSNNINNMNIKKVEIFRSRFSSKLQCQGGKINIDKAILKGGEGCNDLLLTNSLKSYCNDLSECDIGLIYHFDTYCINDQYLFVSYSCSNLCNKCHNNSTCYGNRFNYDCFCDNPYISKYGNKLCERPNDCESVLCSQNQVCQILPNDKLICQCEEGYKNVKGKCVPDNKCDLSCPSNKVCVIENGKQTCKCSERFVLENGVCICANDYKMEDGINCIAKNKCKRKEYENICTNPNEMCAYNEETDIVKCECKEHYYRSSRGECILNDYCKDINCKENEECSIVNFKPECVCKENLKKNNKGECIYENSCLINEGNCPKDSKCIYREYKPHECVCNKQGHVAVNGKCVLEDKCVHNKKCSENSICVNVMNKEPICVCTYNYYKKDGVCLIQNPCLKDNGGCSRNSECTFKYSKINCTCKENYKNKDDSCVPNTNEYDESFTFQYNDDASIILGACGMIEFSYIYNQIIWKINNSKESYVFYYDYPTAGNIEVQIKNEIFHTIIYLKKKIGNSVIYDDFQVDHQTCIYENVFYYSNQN

[3] = biological target: T1, Recombinant Ecto-PfRipr (D21-N1086), …; assay: SPR; single-cycle kinetics, Biacore X100; […], dissociation 180 s, […]; conditions: both partners purified

Recombinant Ecto-PfRipr (D21-N1086), C-terminal His-tag (P. falciparum 3D7), sequence (O97302 21-1086): as above

In the case of “GST-fused recombinant NPTN (Q29-L221) with C-terminal His-tag (domain or fragment)”, the Kd [1] is reported as 24 nM, the koff [1] is reported as 6.5e-05 s⁻¹ and the kon [1] is reported as 2700 M⁻¹ s⁻¹.

B1: GST-fused recombinant AMIGO2 (M1-N397) with C-terminal His-tag (domain or fragment, human, UniProt Q86SJ2 1-397, looked up)
chain: MSLRVHTLPTLLGAVVRPGCRELLCLLMITVTVGPGASGVCPTACICATDIVSCTNKNLSKVPGNLFRLIKRLDLSYNRIGLLDSEWIPVSFAKLNTLILRHNNITSISTGSFSTTPNLKCLDLSSNKLKTVKNAVFQELKVLEVLLLYNNHISYLDPSAFGGLSQLQKLYLSGNFLTQFPMDLYVGRFKLAELMFLDVSYNRIPSMPMHHINLVPGKQLRGIYLHGNPFVCDCSLYSLLVFWYRRHFSSVMDFKNDYTCRLWSDSRHSRQVLLLQDSFMNCSDSIINGSFRALGFIHEAQVGERLMVHCDSKTGNANTDFIWVGPDNRLLEPDKEMENFYVFHNGSLVIESPRFEDAGVYSCIAMNKQRLLNETVDVTINVSNFTVSRSHAHEAFN
B1 showed a Kd [2] of 0.16 nM, a koff [2] of 2e-05 s⁻¹ and a kon [2] of 120000 M⁻¹ s⁻¹.

B2: Recombinant Rh5 (E26-Q526), released from GST by TEV protease (domain or fragment)
chain: ENAIKKTKNQENNLTLLPIKSTEEEKDDIKNGKDIKKEIDNDKENIKTNNAKDHSTYIKSYLNTNVNDGLKYLFIPSHNSFIKKYSVFNQINDGMLLNEKNDVKNNEDYKNVDYKNVNFLQYHFKELSNYNIANSIDILQEKEGHLDFVIIPHYTFLDYYKHLSYNSIYHKSSTYGKCIAVDAFIKKINETYDKVKSKCNDIKNDLIATIKKLEHPYDINNKNDDSYRYDISEEIDDKSEETDDETEEVEDSIQDTDSNHTPSNKKKNDLMNRTFKKMMDEYNTKKKKLIKCIKNHENDFNKICMDMKNYGTNLFEQLSCYNNNFCNTNGIRYHYDEYIHKLILSVKSKNLNKDLSDMTNILQQSELLLTNLNKKMGSYIYIDTIKFIHKEMKHIFNRIEYHTKIINDKTKIIQDKIKLNIWRTFQKDELLKRILDMSNEYSLFITSDHLRQMLYNTFYSKEKHLNNIFHHLIYVLQMKFNDVPIKMEYFQTYKKNKPLTQ
B2 was tested, and the Kd [2] was 0.48 nM, the koff [2] was 2.9e-05 s⁻¹ and the kon [2] was 61000 M⁻¹ s⁻¹.

B3: GST-fused recombinant SEMA7A (Q45-H666) with C-terminal His-tag (domain or fragment, human, UniProt O75326 45-666, looked up)
chain: QGHLRSGPRIFAVWKGHVGQDRVDFGQTEPHTVLFHEPGSSSVWVGGRGKVYLFDFPEGKNASVRTVNIGSTKGSCLDKRDCENYITLLERRSEGLLACGTNARHPSCWNLVNGTVVPLGEMRGYAPFSPDENSLVLFEGDEVYSTIRKQEYNGKIPRFRRIRGESELYTSDTVMQNPQFIKATIVHQDQAYDDKIYYFFREDNPDKNPEAPLNVSRVAQLCRGDQGGESSLSVSKWNTFLKAMLVCSDAATNKNFNRLQDVFLLPDPSGQWRDTRVYGVFSNPWNYSAVCVYSLGDIDKVFRTSSLKGYHSSLPNPRPGKCLPDQQPIPTETFQVADRHPEVAQRVEPMGPLKTPLFHSKYHYQKVAVHRMQASHGETFHVLYLTTDRGTIHKVVEPGEQEHSFAFNIMEIQPFRRAAAIQTMSLDAERRKLYVSSQWEVSQVPLDLCEVYGGGCHGCLMSRDPYCGWDQGRCISIYSSERSVLQSINPAEPHKECPNPKPDKAPLQKVSLAPNSRYYLSCPMESRHATYSWRHKENVEQSCEPGHQSPNCILFIENLTAQQYGHYFCEAQEGSYFREAQHWQLLPEDGIMAEHLLGHACALAASLWLGVLPTLTLGLLVH
In the case of B3, the Kd [2] is reported as 0.94 nM, the koff [2] is reported as 4.1e-05 s⁻¹ and the kon [2] is reported as 44000 M⁻¹ s⁻¹.

B4: GST-fused recombinant CyRPA (N27-E362) with C-terminal His-tag (domain or fragment)
chain: NCDSRHVFIRTELSFIKNNVPCIRDMFFIYKRELYNICLDDLKGEEDETHIYVQKKVKDSWITLNDLFKETDLTGRPHIFAYVDVEEIIILLCEDEEFSNRKKDMTCHRFYSNDGKEYNNSEITISDYILKDKLLSSYVSLPLKIENREYFLICGVSPYKFKDDNKKDDILCMASHDKGETWGTKIVIKYDNYKLGVQYFFLRPYISKNDLSFHFYVGDNINNVKNVNFIECTHEKDLEFVCSNRDFLKDNKVLQDVSTLNDEYIVSYGNDNNFAECYIFFNNENSILIKPEKYGNTTAGCYGGTFVKIDENRTLFIYSSSQGIYNIHTIYYANYE
B4 gave a Kd [3] of 69 nM, a koff [3] of 0.00016 s⁻¹ and a kon [3] of 2400 M⁻¹ s⁻¹.
